One may read the Kd as a measure of binding affinity in units of concentration.

Our source for the Kd and stoichiometry values is US20250002528A1 (OXFORD UNIVERSITY INNOVATION, published 2025).

For one experiment, the target named is T1, SpyTag003-MBP.
T1 construct: Fusion of SpyTag003 and MBP
The experiment is described as follows: ITC, monomeric SpySwitch, pH 7.5, 5 °C; ITC, pH 7.5, 5 C.

Another experiment concerns the target T2, SpyTag-MBP.
T2 construct: Fusion of SpyTag and MBP
The experiment is described as above.

B1: SpySwitch (designed binder)
chain: MSYYHHHHHHGSGGSGAMVTTLSGLSGEQGPSGDMTTEEDSATHIHFHKHDEDGRELAGATMELRDCSGKTISTWITDGHVKDFYLYPGKYTFVATAAPDGHHVATPIEFTINEDGQVTVDGEATEGDPHTGSSGS
notes: also called SpySwitch resin; monomeric SpySwitch
With B1, the Kd with SpyTag003-MBP stood at 1.5 µM; in the experiment with SpyTag-MBP, 1.1 µM. Moreover, the stoichiometry with SpyTag003-MBP and in the experiment with SpyTag-MBP was 1 throughout.
